Measurements from patent US20220242939A1 (BIOARCTIC, published 2022).
Non-standard residues stand in square brackets, D forms with d. No end group written: not given here. Ahx = NCCCCCC(=O)O

Key:
[1] = target: T1, full-length ApoE in human brain extract from Alzheimer's disease patients (human, UniProt P02649 19-317); assay: Western blot, human AD brain extract, hybridoma supernatant (data not shown for 21C3)
T1 construct: mature; Endogenous protein on Western blot or in solution (IP); also called ApoE full-length protein
T1 sequence (P02649 19-317): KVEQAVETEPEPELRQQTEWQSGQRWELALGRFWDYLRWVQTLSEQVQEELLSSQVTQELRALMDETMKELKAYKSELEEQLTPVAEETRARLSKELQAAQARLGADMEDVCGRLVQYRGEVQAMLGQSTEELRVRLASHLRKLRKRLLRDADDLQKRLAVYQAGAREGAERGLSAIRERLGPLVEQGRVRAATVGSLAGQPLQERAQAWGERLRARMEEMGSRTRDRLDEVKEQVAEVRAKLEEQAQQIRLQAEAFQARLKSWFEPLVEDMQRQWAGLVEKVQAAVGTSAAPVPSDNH
Excerpt: Selectivity evaluation and human target binding in Alzheimer's disease brain extracts by Western blot analysis: The Western blot analysis described below was used to evaluate selective binding of monoclonal antibodies with affinity for the N-terminal neo-epitope of ApoE fragments […], starting at G200, without binding to ApoE full-length protein, in human brain extracts from an Alzheimer's disease patient. Fresh frozen brain tissue from the Alzheimer's disease patient was homogenized in RIPA 2% SDS extraction buffer, followed by centrifugation at 16000×g for 1 h. The subsequent supernatant was subjected to standard protein concentration determination.
RIPA 2% SDS brain extract containing 80 μg total protein was mixed with 2×Laemmli sample buffer, boiled for 5 min at 95° C. and loaded onto SDS-PAGE gels (Bolt™ 12% Bis-Tris Plus 10 well, Thermo Fisher, cat. no. NW00120BOX). Gels were run for 30-40 min at 180 V, after which proteins were transferred from the gels to nitrocellulose membranes using the Trans-Blot® Turbo™ system (Bio-Rad). Membranes were blocked in Odyssey® blocking buffer for 1 h and incubated over night at room temperature with hybridoma supernatant diluted 1:1 in Odyssey® blocking buffer with 0.1% TWEEN®-20. […]

[2] = target: T2, G200 N-terminal neo-epitope peptide GQPLQE-Acp-C (SEQ ID NO:50) conjugated to BSA (human, not fully specified (residue 8); printed as GQPLQE-Acp-C; also: C-terminal Cys conjugated to BSA carrier); assay: direct ELISA, target coated at 1 ug/ml, supernatant in 3-fold dilutions from 1000 ng/ml, OD 450 nm
T2 construct: also called G200-BSA peptide; G200-peptide
T2 peptide: GQPLQE[Ahx]C
Method: (§1) Selectivity evaluation by direct ELISA: The direct ELISA described below was used to evaluate the binding selectivity of generated monoclonal anti-ApoE antibodies with affinity for the N-terminal neo-epitope of C-terminal ApoE fragments starting at amino acid G200.
(§2) The screening was performed according to standard ELISA protocols. Briefly, 1 μg/ml solutions of N-terminal neo-epitope peptide (SEQ ID NO:50) conjugated to BSA, the recombinant C-terminal ApoE fragment G200-HIS (SEQ ID NO:48) and recombinant full-length ApoE4 (SEQ ID NO:45; Abcam; cat. no. ab50243) were prepared by dilution in PBS. 50 μl/well were added to an ELISA half-area 96 well microtiter plate. Then, the plate was sealed with adhesive sealer and incubated over night at 4° C. The plates were blocked with 150 μl/well of protein-free blocking solution (Pierce) for 1 h at room temperature with shake (600-900 rpm). The plates were washed four times with washing buffer containing 0.28 mM NaH₂PO₄, 2.5 mM Na₂HPO₄, 150 mM NaCl, 0.1% TWEEN®-20 and 0.0075% Kathon CG. Antibodies of interest were serially diluted 3-fold with a starting dilution at 1 μg/ml (mixed 1:1 with dilution buffer: PBS with 0.1% BSA and 0.05% TWEEN®-20) and incubated for 2 h at room temperature. The plates were washed four times as before. […] After another wash (as above), 50 μl/well of K-Blue® aqueous substrate (Neogen) were added, and the reaction was stopped after 5-15 min with 50 μl/well of 0.5 M […]. The optical density at 450 nm was read using an ELISA reader (Tecan). The optical density was plotted against the antibody concentration to generate concentration-response curves (FIG. 14).

[3] = target: T3, recombinant full-length ApoE4 (aa 1-299; SEQ ID NO:45; Abcam cat. no. ab50243) (human, UniProt P02649 19-317); assay: as above
T3 construct: Bought protein; also called recombinant ApoE4 full-length protein
T3 sequence (P02649 19-317 C130R limits assumed): as the sequence (P02649 19-317) above, with C112R counted along it
Method: as §1, §2

[4] = target: T4, recombinant C-terminal ApoE fragment G200-HIS (ApoE-G200-H299-10xHIS) (human, UniProt P02649 218-317); assay: as above
T4 construct: also called G200-HIS fragment
T4 sequence (P02649 other isoform, or with tags, fused parts or gaps limits assumed): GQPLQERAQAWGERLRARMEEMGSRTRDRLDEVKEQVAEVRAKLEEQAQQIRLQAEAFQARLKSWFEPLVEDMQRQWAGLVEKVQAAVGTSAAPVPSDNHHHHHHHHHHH
Method: as §1, §2

[5] = target: T5, His-tagged recombinant full-length ApoE4, 10xHIS-ApoE4(1-299) (human, UniProt P02649 19-317); assay: direct ELISA
T5 construct: also called ApoE4-FL-HIS
T5 sequence (P02649 other isoform, or with tags, fused parts or gaps limits assumed): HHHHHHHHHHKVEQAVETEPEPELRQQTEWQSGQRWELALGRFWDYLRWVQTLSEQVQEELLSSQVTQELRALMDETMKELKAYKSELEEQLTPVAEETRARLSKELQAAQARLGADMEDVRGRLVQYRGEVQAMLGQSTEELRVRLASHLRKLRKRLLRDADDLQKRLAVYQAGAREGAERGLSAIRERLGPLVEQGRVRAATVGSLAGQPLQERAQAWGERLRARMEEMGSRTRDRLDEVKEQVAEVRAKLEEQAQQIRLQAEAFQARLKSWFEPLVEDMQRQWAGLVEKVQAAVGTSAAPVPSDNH

[6] = target: T6, L198 N-terminal neo-epitope peptide LAGQPLQE-Acp-C (SEQ ID NO:54) conjugated to BSA (human, not fully specified (residue 10); printed as LAGQPLQE-Acp-C; also: C-terminal Cys conjugated to BSA carrier); assay: direct ELISA after limiting dilution
T6 construct: BSA carrier
T6 peptide: LAGQPLQE[Ahx]C

[7] = target: T7, recombinant C-terminal ApoE fragment L198-HIS (ApoE-L198-H299-10xHIS) (human, UniProt P02649 216-317); assay: direct ELISA, L198-HIS coated at 0.1 µM
T7 construct: also called L198-HIS fragment
T7 sequence (P02649 other isoform, or with tags, fused parts or gaps limits assumed): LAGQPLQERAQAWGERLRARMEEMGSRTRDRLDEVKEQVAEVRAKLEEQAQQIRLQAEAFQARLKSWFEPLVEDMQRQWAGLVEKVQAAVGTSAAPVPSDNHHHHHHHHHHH
Method in brief: (§3)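 Antigens were coated overnight at 4 °C in PBS, then plates were blocked with protein-free blocker for 1 h. Purified mAbs in 3-fold serial dilutions from 3 μg/ml were bound for 2 h at room temperature, with anti-ApoE C-terminal E-8 as reference. TMB substrate development was stopped with H2SO4 and OD450 was read.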

[8] = target: T8, L198 N-terminal neo-epitope peptide LAGQPL-Acp-C (SEQ ID NO:52) conjugated to BSA (human, not fully specified (residue 8); printed as LAGQPL-Acp-C; also: C-terminal Cys conjugated to BSA carrier); assay: direct ELISA, L198-BSA peptide coated at 1 µg/ml
T8 construct: BSA carrier; also called L198-BSA peptide
T8 peptide: LAGQPL[Ahx]C
Method in brief: as §3

[9] = target: T1, full-length ApoE in human brain extract …; assay: Western blot of AD brain RIPA 2% SDS extract; monoclonal antibody at 2 ug/ml as primary antibody
[10] = target: T2, G200 N-terminal neo-epitope peptide …; assay: direct ELISA; proteins coated at 0.1 uM, BSA peptides at 1 ug/ml; antibody in 3-fold dilutions from 3000 ng/ml; blank reduced OD 450 nm
Method: (§4) Selectivity evaluation of purified monoclonal antibodies by direct ELISA: The direct ELISA described below was used to evaluate the binding selectivity of the purified monoclonal antibodies produced in Example 14.
(§5) The screening was performed according to standard ELISA protocols. Briefly, 1 μg/ml solutions of BSA-conjugated neo-epitope peptides and negative control peptide, and 0.1 μM recombinant C-terminal ApoE fragment and full-length ApoE (Abcam, cat. no. ab50243) were prepared by dilution in PBS. 50 μl/well were added to an ELISA half-area 96 well microtiter plate, and the plate was sealed with adhesive sealer and incubated over night at 4° C. After discarding the solution, the plates were blocked with 150 μl/well of protein-free blocking solution (Pierce) for 1 h at room temperature with shake (600-900 rpm). The plates were washed four times with washing buffer containing 0.28 mM NaH₂PO₄, 2.5 mM Na₂HPO₄, 150 mM NaCl, 0.1% TWEEN®-20 and 0.0075% Kathon CG. Purified monoclonal antibodies of interest were 3-fold serially diluted with a starting dilution at 3 μg/ml (mixed 1:2 with dilution buffer (PBS with 0.1% BSA and 0.05% TWEEN®-20)). An anti-ApoE C-terminal antibody was used as a reference antibody (ApoE E-8 mouse monoclonal, Santa Cruz Biotechnology, cat. no. sc-393302). 50 μl/well were added into the ELISA plates and incubated for 2 h at room temperature with shake (600-900 rpm). The plates were washed four times as described previously. […] After another wash (as described previously), 50 μl/well of K-Blue® aqueous substrate (Neogen) were added, and the reaction was stopped after 5-15 min with 50 μl/well of 0.5 M […]. The optical density at 450 nm was read using an ELISA reader (Tecan).

[11] = target: T3, recombinant full-length ApoE4 (aa …); assay: as above
Method: as §4, §5

[12] = target: T9, A199 N-terminal neo-epitope peptide AGQPLQ-Acp-C (SEQ ID NO:51) conjugated to BSA (human, not fully specified (residue 8); printed as AGQPLQ-Acp-C; also: C-terminal Cys conjugated to BSA carrier); assay: as above
T9 construct: BSA carrier; also called A199-BSA peptide
T9 peptide: AGQPLQ[Ahx]C
Method: as §4, §5

[13] = target: T10, negative control peptide AATVGSLAGQPLQER-Acp-C (SEQ ID NO:53) conjugated to BSA (human, not fully specified (residue 17); printed as AATVGSLAGQPLQER-Acp-C; also: C-terminal Cys conjugated to BSA carrier); assay: as above
T10 construct: BSA carrier; also called 192-206 BSA-conjugated peptide
T10 peptide: AATVGSLAGQPLQER[Ahx]C
Method: as §4, §5

B1: 21C3, hybridoma monoclonal antibody (unpurified supernatant) (antibody, V domains shown)
VH: EVQLVESGGDLVKPGGSLKLSCAASGFTFSSYAMSWVRQSPEKRLEWVAEISGSGSRDHYTDSVTGRFTVSRDNAKNTLYLEMSSLRSEDTAIYYCARQLTGTDYYGTDYWGQGTSVTVSS
VL: DVLMTQIPLSLPVSLGDQASISCRSSQSIVYSNGNTYLEWYLQRPGQSPKLLIYKVSNRFSGVPDRFSGSGSGTDFTLKISRVEAEDLGVYYCFQGSHLPYTFGGGTKLEIK
notes: same VH and VL as 4E6; not made as recombinant antibody
[1]
  binding result: no binding
[2]
  EC50 (read off the curve): ~4 ng/mL
[3]
  binding result: no binding (tested: 1000 ng/ml)
[4]
  EC50 (read off the curve): ~4 ng/mL

B2: 6F4, monoclonal anti-L198 antibody (antibody, IgG1, V domains shown)
VH: EVNLEESGGDLVQPGRSLKLSCVASGFTFSDYWMNWVRQSPEKGLEWVAQIRLKSDNYVTHYVESLKGRFTISRDDSRSCVYLQMNNLRAEDTGIYYCTGHILLRRRYFDVWGTGTTVTVSS
VL: DIVMTQSQKFMSTSVGDRVSVTCEASQNVGTNVAWYQQKPGQSPKGLIYSASYRYSGVPDRFTGSGSGTDFTLTISTVQSEDLAEYFCHQFNTYPYTFGGGTTLEII
[5]
  binding result: no binding (tested: 3 µg/ml)
[6]
  binding result: binds
[7]
  EC50: 18.5 ng/mL
[8]
  EC50: 13.5 ng/mL
[9]
  binding result: no binding (tested: 2 ug/ml (text))
[10]
  binding result: no binding (tested: 3000 ng/ml)
[11]
  binding result: no binding (tested: 3000 ng/ml)
[12]
  binding result: no binding (tested: 3000 ng/ml)
[13]
  binding result: no binding (tested: 3000 ng/ml)
